“Also recorded” adds a separate entry of the source. Values belong to the molecule of their own block, whether it stands above or below them. Where a SMILES comes first, the peptide text is derived from it. The star is where a group is joined. Cbz = O=C(OCc1ccccc1)*; CH2F = FC*
Experiments:
[1] = molecular target: T1, active recombinant human caspase 3 (Homo sapiens, UniProt P42574); assay: In vitro cleavage of recombinant SRF by active caspase 3, Western blot; assay type: biochemical; details: 20 μM Z-VAD-fmk, recombinant full length SRF
T1 construct: incubated with active recombinant human caspase 3; purchased BD PharMingen
T1 sequence (P42574 29-175 limits assumed): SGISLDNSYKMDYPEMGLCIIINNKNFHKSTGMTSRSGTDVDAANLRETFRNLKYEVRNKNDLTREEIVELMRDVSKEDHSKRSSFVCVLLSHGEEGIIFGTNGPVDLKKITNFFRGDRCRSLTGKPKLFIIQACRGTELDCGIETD
T1 sequence (P42574 176-277 limits assumed): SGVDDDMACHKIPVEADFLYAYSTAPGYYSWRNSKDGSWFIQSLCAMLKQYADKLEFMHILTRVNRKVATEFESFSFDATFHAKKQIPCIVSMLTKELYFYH
Procedure: Recombinant purified full length SRF was incubated with active recombinant human caspase 3 (BD PharMingen) in the presence or absence of 20 μM of Z-VAD-fmk (BD PharMingen), a caspase 3 inhibitor, in a reaction buffer (50 mM HEPES (pH 7.4), 100 mM NaCl, 1 mM EDTA, 0.1% CHAPS, 10 mM DTT and 10% glycerol). Reactions were analyzed by Western blot as described above.
To examine caspase 3 cleavage of SRF, we incubated activated caspase 3 with recombinant SRF in vitro. […] Caspase 3 cleaved SRF in a time-dependent manner, and this cleavage was inhibited by the caspase inhibitor, Z-VAD. […] In this case, the 55 kDa fragment tended to fall as a function of caspase 3 doses while there was a coincident increase into a 32 kDa fragment.

[2] = tested on: cardiac α-actin promoter; assay: Cardiac α-actin promoter luciferase reporter (αCA-luc) co-transfection; assay type: cell-based, rat; details: for effect on cardiac α-actin promoter activity (in words): neonatal rat cardiomyocytes
Description: (§1) The construction and use of reporter plasmids containing the skeletal (SK-luc) and cardiac α-actin (aCA-luc) promoters linked to luciferase reporters were as previously described (MacLellan et al., 1994; Wei et al., 1998). The vector pCGN, a cytomegalovirus promoter-driven expression vector, was used to express full length SRF (residues 1-508) (pCGN-SRF), N-terminal SRF (residues 1-254) (pCGN-SRF-N), C-terminal SRF (residues 255-508) (pCGN-SRF-C) and SRFpm1 (pCGN-SRFpm1) containing triple point mutants within the MADS box (Prywes and Zhu, 1992).
(§2) C2C12 myoblasts and neonatal rat cardiomyocytes were cultured as previously described (MacLellan et al., 1994; Wei et al., 1998). Cells plated in 30-mm plates were transfected with […] of total plasmid DNA containing the reporter plasmid (SK-luc or aCA-luc) and the indicated expression plasmids. Transfections were performed using LipofectAMINE (Invitrogen) according to the manufacturer's instructions. Cells were harvested 40 h post-transfection and luciferase activity was measured as previously described (MacLellan et al., 1994).
(§3) To evaluate potential functional significance of the cleaved fragments, we overexpressed the SRF-N and SRF-C fragments via CMV promoter-driven expression plasmids co-transfected with cardiac α-actin and skeletal α-actin promoter reporter plasmids in cultured rat neonatal cardiomyocytes and C2C12 myoblasts. […] This inhibitory effect was very similar to that observed by a SRF negative mutant SRFpml (Wei et al., 1998; Prywes and Zhu, 1992; Johansen and Prywes, 1993).

[3] = tested on: skeletal α-actin promoter; assay: Skeletal α-actin promoter luciferase reporter (SK-luc) co-transfection in C2C12 myoblasts; assay type: cell-based
Description: as §1, §2, §3

[4] = tested on: neonatal cardiomyocytes; assay: Immunofluorescence analysis of cellular localization in transfected cardiomyocytes; assay type: cell-based, rat; details: transfected cardiac myocytes, anti-HA antibody
Description: Visualization of transfected SRF and SRF-N cellular localization was implemented in neonatal cardiomyocytes attached to coverslips as described previously (Wei et al., 2001). Anti-HA antibody was used at 1:200.

[5] = tested on: skeletal α-actin SRE1 DNA probe; assay: Electrophoretic gel mobility shift assay (EMSA); assay type: binding; details: recombinant protein
Procedure: DNA binding activity of SRF-N was assayed by EMSA with recombinant SRF-N and full length SRF and with the oligonucleotide probe corresponding to the proximal SRE1 of the skeletal a-actin promoter as previously described (MacLellan et al., 1994; Wei et al., 1998). Recombinant SRF and SRF-N were generated using pET-15b (Novagen) vector, which contains 6′histidine tag. These recombinant SRFs were expressed in BL21 (Stratagene) competent cells followed by Ni-NTA (nickel-nitrilotriacetic acid) resin purification.

cleavage of SRF by caspase 3 [1]: blocked; also recorded: inhibited
Molecule: COC(=O)C[C@H](NC(=O)[C@H](C)NC(=O)[C@@H](NC(=O)OCc1ccccc1)C(C)C)C(=O)CF [Z-VAD, Z-VAD-fmk] (Cbz-Val-Ala-Asp(OMe)-CH2F)

effect on cardiac α-actin promoter activity (in words) [2]: did not inhibit | effect on skeletal α-actin promoter activity (in words) [3]: did not inhibit
B1: SRF-C: C-terminal SRF (residues 255-508), 32 kDa fragment (protein)
chain: SSGETKDTLKPAFTVTNLPGTTSTIQTAPSTSTTMQVSSGPSFPITNYLAPVSASVSPSAVSSANGTVLKSTGSGPVSSGGLMQLPTSFTLMPGGAVAQQVPVQAIQVHQAPQQASPSRDSSTDLTQTSSSGTVTLPATIMTSSVPTTVGGHMMYPSPHAVMYAPTSGLGDGSLTVLNAFSQAPSTMQVSHSQVQEPGGVPQVFLTASSGTVQIPVSAVQLHQMAVIGQQAGSSSNLTELQVVNLDTAHSTKSE

decrease of basal transcriptional activity of the cardiac α-actin promoter ([2]; cultured rat neonatal cardiomyocytes, CMV promoter-driven expression plasmid, 40 h post-transfection): 60% | effect on cardiac α-actin promoter activity (in words) [2]: repressed | inhibition of the transcriptional activity of α-actin gene promoters ([2]; summary for myogenic cells (cardiomyocytes and C2C12 myoblasts together)): 50-60% | effect on skeletal α-actin promoter activity (in words) [3]: repressed | decrease of basal transcriptional activity of the skeletal α-actin promoter ([3]; CMV promoter-driven expression plasmid, 40 h post-transfection): 50%
B2: SRF-N: N-terminal SRF (residues 1-254), 32 kDa caspase 3 cleavage fragment (protein)
chain: MLPTQAGAAAALGRGSALGGSLNRTPTGRPGGGGGTRGANGGRVPGNGAGLGPGRLEREAAAAAATTPAPTAGALYSGSEGDSESGEEEELGAERRGLKRSLSEMEIGMVVGGPEASAAATGGYGPVSGAVSGAKPGKKTRGRVKIKMEFIDNKLRRYTTFSKRKTGIMKKAYELSTLTGTQVLLLVASETGHVYTFATRKLQPMITSETGKALIQTCLNSPDSPPRSDPTTDQRMSATGFEETDLTYQVSESD
nuclear localization [4]: localize to myogenic nuclei | binding to skeletal α-actin SRE1 DNA probe [5]: retains DNA binding activity; also recorded: bound

Reference: patent US7582478B2, “Cleaved serum response factor in cardiac diagnosis and therapy” (Baylor College of Medicine, priority 2003, dated 2009)
